Data on one molecule can be found in paper PMC8632965.

The target in this experiment is T1, extracellular portion of CD98 (212-630 of CD98hc).
T1 chain: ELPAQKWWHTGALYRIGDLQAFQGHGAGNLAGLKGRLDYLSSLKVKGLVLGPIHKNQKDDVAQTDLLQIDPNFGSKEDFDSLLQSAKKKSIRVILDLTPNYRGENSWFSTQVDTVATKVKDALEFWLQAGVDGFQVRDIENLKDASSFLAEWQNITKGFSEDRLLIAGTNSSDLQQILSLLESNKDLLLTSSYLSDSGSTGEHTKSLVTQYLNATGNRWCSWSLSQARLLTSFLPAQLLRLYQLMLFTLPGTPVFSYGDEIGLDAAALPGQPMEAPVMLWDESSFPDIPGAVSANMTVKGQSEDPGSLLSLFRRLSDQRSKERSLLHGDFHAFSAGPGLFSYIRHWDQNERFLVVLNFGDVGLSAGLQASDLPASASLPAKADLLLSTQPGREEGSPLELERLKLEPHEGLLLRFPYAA
Briefly: SPR. The conditions noted are these: chain shown with the change;; parent: est. 24; read off a plot.

B1: domain 1 of CD147, P35613-2 K63A (protein)
chain: AAGTVFTTVEDLGSKILLTCSLNDSATEVTGHRWLKGGVVLAEDALPGQKTEFKVDSDDQWGEYSCVFLPEPMGTANIQLHGPPRVKAVKSSEHINEGETAMLVCKSESVPPVTDWAWYKITDSEDKALMNGSESRFFVSSSQGRSELHIENLNMEADPGQYRCNGTSSKGSDQAIITLRVRSH
For the molecule B1, the response was 3.5 RU.
